Laboratory results taken from patent publication US20030180895A1.

Tests used:
Experiment in all cases: cell-based or functional assay
[1] = target: Bacillus subtilis xylanase A mutant T123Y (Bacillus subtilis) (UniProt P18429)
[2] = target: Bacillus subtilis xylanase A mutant G120K (Bacillus subtilis) (UniProt P18429)
[3] = target: Bacillus subtilis xylanase A mutant D121F (Bacillus subtilis) (UniProt P18429)
[4] = target: Bacillus subtilis xylanase A mutant D11F/R122D (Bacillus subtilis) (UniProt P18429)
[5] = target: Bacillus subtilis xylanase A mutant N29K (Bacillus subtilis) (UniProt P18429)
[6] = target: Bacillus subtilis xylanase A mutant T123K (Bacillus subtilis) (UniProt P18429)
[7] = target: Bacillus subtilis xylanase A mutant R122F (Bacillus subtilis) (UniProt P18429)
[8] = target: Bacillus subtilis xylanase A mutant G120N (Bacillus subtilis) (UniProt P18429)
[9] = target: Bacillus subtilis xylanase A mutant D119K (Bacillus subtilis) (UniProt P18429)
[10] = target: Bacillus subtilis xylanase A mutant D11Y (Bacillus subtilis) (UniProt P18429)
[11] = target: Bacillus subtilis xylanase A mutant R122D (Bacillus subtilis) (UniProt P18429)
[12] = target: Bacillus subtilis xylanase A mutant G12F (Bacillus subtilis) (UniProt P18429)
[13] = target: Bacillus subtilis xylanase A mutant Q175S (Bacillus subtilis) (UniProt P18429)
[14] = target: Bacillus subtilis xylanase A mutant D119Y (Bacillus subtilis) (UniProt P18429)
[15] = target: Bacillus subtilis xylanase A mutant S31K (Bacillus subtilis) (UniProt P18429)
[16] = target: Bacillus subtilis xylanase A mutant N32K (Bacillus subtilis) (UniProt P18429)
[17] = target: Bacillus subtilis xylanase A mutant G13F (Bacillus subtilis) (UniProt P18429)
[18] = target: Bacillus subtilis xylanase A mutant N17D (Bacillus subtilis) (UniProt P18429)
[19] = target: Bacillus subtilis xylanase A mutant S31Y (Bacillus subtilis) (UniProt P18429)
[20] = target: Bacillus subtilis xylanase A mutant Q175E (Bacillus subtilis) (UniProt P18429)
[21] = target: Bacillus subtilis xylanase A mutant G120D (Bacillus subtilis) (UniProt P18429)
[22] = target: Thermomyces lanuginosus wildtype xylanase A (Thermomyces lanuginosus) (UniProt O43097)
Sequence of UniProt O43097 (O43097 32-225 limits assumed): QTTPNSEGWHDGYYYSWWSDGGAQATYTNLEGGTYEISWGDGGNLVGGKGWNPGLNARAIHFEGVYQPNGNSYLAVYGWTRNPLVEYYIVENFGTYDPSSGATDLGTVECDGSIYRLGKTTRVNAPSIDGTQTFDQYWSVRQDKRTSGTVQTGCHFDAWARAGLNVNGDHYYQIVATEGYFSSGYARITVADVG

[23] = target: Bacillus subtilis xylanase A mutant T123D (Bacillus subtilis) (UniProt P18429)
[24] = target: Bacillus subtilis xylanase A mutant T124Y (Bacillus subtilis) (UniProt P18429)
[25] = target: Bacillus subtilis xylanase A mutant D11F (Bacillus subtilis) (UniProt P18429)
[26] = target: Bacillus subtilis xylanase A mutant Y166F (Bacillus subtilis) (UniProt P18429)
[27] = target: Bacillus subtilis wild type xylanase A (Bacillus subtilis) (UniProt P18429)

Relative inhibition, % at 1, 26 XIU/ml [1]: 80%
Relative inhibition, % at 3, 15 XIU/ml [1]: 47%
Relative inhibition, % at 6, 3 XIU/ml [1]: 28%
Relative inhibition, % at 12, 6 XIU/ml [1]: 27%
Relative inhibition, % at 1, 26 XIU/ml [2]: 85%
Relative inhibition, % at 3, 15 XIU/ml [2]: 52%
Relative inhibition, % at 6, 3 XIU/ml [2]: 29%
Relative inhibition, % at 12, 6 XIU/ml [2]: 22%
Relative inhibition, % at 1, 26 XIU/ml [3]: 101%
Relative inhibition, % at 3, 15 XIU/ml [3]: 89%
Relative inhibition, % at 6, 3 XIU/ml [3]: 72%
Relative inhibition, % at 12, 6 XIU/ml [3]: 60%
Relative inhibition, % at 1, 26 XIU/ml [4]: 109%
Relative inhibition, % at 3, 15 XIU/ml [4]: 111%
Relative inhibition, % at 6, 3 XIU/ml [4]: 110%
Relative inhibition, % at 12, 6 XIU/ml [4]: 109%
Relative inhibition, % at 1, 26 XIU/ml [5]: 83%
Relative inhibition, % at 3, 15 XIU/ml [5]: 50%
Relative inhibition, % at 6, 3 XIU/ml [5]: 30%
Relative inhibition, % at 12, 6 XIU/ml [5]: 23%
Relative inhibition, % at 1, 26 XIU/ml [6]: 80%
Relative inhibition, % at 3, 15 XIU/ml [6]: 46%
Relative inhibition, % at 6, 3 XIU/ml [6]: 30%
Relative inhibition, % at 12, 6 XIU/ml [6]: 25%
Relative inhibition, % at 1, 26 XIU/ml [7]: 93%
Relative inhibition, % at 3, 15 XIU/ml [7]: 74%
Relative inhibition, % at 6, 3 XIU/ml [7]: 58%
Relative inhibition, % at 12, 6 XIU/ml [7]: 58%
Relative inhibition, % at 1, 26 XIU/ml [8]: 84%
Relative inhibition, % at 3, 15 XIU/ml [8]: 49%
Relative inhibition, % at 6, 3 XIU/ml [8]: 29%
Relative inhibition, % at 12, 6 XIU/ml [8]: 23%
Relative inhibition, % at 1, 26 XIU/ml [9]: 94%
Relative inhibition, % at 3, 15 XIU/ml [9]: 67%
Relative inhibition, % at 6, 3 XIU/ml [9]: 40%
Relative inhibition, % at 12, 6 XIU/ml [9]: 26%
Relative inhibition, % at 1, 26 XIU/ml [10]: 120%
Relative inhibition, % at 3, 15 XIU/ml [10]: 114%
Relative inhibition, % at 6, 3 XIU/ml [10]: 126%
Relative inhibition, % at 12, 6 XIU/ml [10]: 124%
Relative inhibition, % at 1, 26 XIU/ml [11]: 85%
Relative inhibition, % at 3, 15 XIU/ml [11]: 59%
Relative inhibition, % at 6, 3 XIU/ml [11]: 41%
Relative inhibition, % at 12, 6 XIU/ml [11]: 28%
Relative inhibition, % at 1, 26 XIU/ml [12]: 110%
Relative inhibition, % at 3, 15 XIU/ml [12]: 106%
Relative inhibition, % at 6, 3 XIU/ml [12]: 100%
Relative inhibition, % at 12, 6 XIU/ml [12]: 92%
Relative inhibition, % at 1, 26 XIU/ml [13]: 88%
Relative inhibition, % at 3, 15 XIU/ml [13]: 59%
Relative inhibition, % at 6, 3 XIU/ml [13]: 30%
Relative inhibition, % at 12, 6 XIU/ml [13]: 19%
Relative inhibition, % at 1, 26 XIU/ml [14]: 87%
Relative inhibition, % at 3, 15 XIU/ml [14]: 50%
Relative inhibition, % at 6, 3 XIU/ml [14]: 28%
Relative inhibition, % at 12, 6 XIU/ml [14]: 22%
Relative inhibition, % at 1, 26 XIU/ml [15]: 77%
Relative inhibition, % at 3, 15 XIU/ml [15]: 42%
Relative inhibition, % at 6, 3 XIU/ml [15]: 23%
Relative inhibition, % at 12, 6 XIU/ml [15]: 23%
Relative inhibition, % at 1, 26 XIU/ml [16]: 82%
Relative inhibition, % at 3, 15 XIU/ml [16]: 42%
Relative inhibition, % at 6, 3 XIU/ml [16]: 19%
Relative inhibition, % at 12, 6 XIU/ml [16]: 14%
Relative inhibition, % at 1, 26 XIU/ml [17]: 104%
Relative inhibition, % at 3, 15 XIU/ml [17]: 95%
Relative inhibition, % at 6, 3 XIU/ml [17]: 87%
Relative inhibition, % at 12, 6 XIU/ml [17]: 84%
Relative inhibition, % at 1, 26 XIU/ml [18]: 90%
Relative inhibition, % at 3, 15 XIU/ml [18]: 81%
Relative inhibition, % at 6, 3 XIU/ml [18]: 50%
Relative inhibition, % at 12, 6 XIU/ml [18]: 22%
Relative inhibition, % at 1, 26 XIU/ml [19]: 83%
Relative inhibition, % at 3, 15 XIU/ml [19]: 50%
Relative inhibition, % at 6, 3 XIU/ml [19]: 27%
Relative inhibition, % at 12, 6 XIU/ml [19]: 22%
Relative inhibition, % at 1, 26 XIU/ml [20]: 87%
Relative inhibition, % at 3, 15 XIU/ml [20]: 59%
Relative inhibition, % at 6, 3 XIU/ml [20]: 40%
Relative inhibition, % at 12, 6 XIU/ml [20]: 31%
Relative inhibition, % at 1, 26 XIU/ml [21]: 84%
Relative inhibition, % at 3, 15 XIU/ml [21]: 47%
Relative inhibition, % at 6, 3 XIU/ml [21]: 24%
Relative inhibition, % at 12, 6 XIU/ml [21]: 18%
Relative inhibition, % at 1, 26 XIU/ml [22]: 45%
Relative inhibition, % at 3, 15 XIU/ml [22]: 24%
Relative inhibition, % at 6, 3 XIU/ml [22]: 17%
Relative inhibition, % at 12, 6 XIU/ml [22]: 14%
Relative inhibition, % at 1, 26 XIU/ml [23]: 83%
Relative inhibition, % at 3, 15 XIU/ml [23]: 36%
Relative inhibition, % at 6, 3 XIU/ml [23]: 20%
Relative inhibition, % at 12, 6 XIU/ml [23]: 17%
Relative inhibition, % at 1, 26 XIU/ml [24]: 101%
Relative inhibition, % at 3, 15 XIU/ml [24]: 76%
Relative inhibition, % at 6, 3 XIU/ml [24]: 49%
Relative inhibition, % at 12, 6 XIU/ml [24]: 33%
Relative inhibition, % at 1, 26 XIU/ml [25]: 114%
Relative inhibition, % at 3, 15 XIU/ml [25]: 119%
Relative inhibition, % at 6, 3 XIU/ml [25]: 116%
Relative inhibition, % at 12, 6 XIU/ml [25]: 115%
Relative inhibition, % at 1, 26 XIU/ml [26]: 74%
Relative inhibition, % at 3, 15 XIU/ml [26]: 39%
Relative inhibition, % at 6, 3 XIU/ml [26]: 22%
Relative inhibition, % at 12, 6 XIU/ml [26]: 20%
Relative inhibition, % at 1, 26 XIU/ml [27]: 75%
Relative inhibition, % at 3, 15 XIU/ml [27]: 40%
Relative inhibition, % at 6, 3 XIU/ml [27]: 24%
Relative inhibition, % at 12, 6 XIU/ml [27]: 20%
Substance: wheat endogenous xylanase inhibitor
